Changes are numbered by the printed parent chain.
T1: hFcgRIIaH (human, UniProt P12318 34-217)
T1 construct: extracellular domain; also called human FcγRIIa type H (H131)
T1 sequence (looked up): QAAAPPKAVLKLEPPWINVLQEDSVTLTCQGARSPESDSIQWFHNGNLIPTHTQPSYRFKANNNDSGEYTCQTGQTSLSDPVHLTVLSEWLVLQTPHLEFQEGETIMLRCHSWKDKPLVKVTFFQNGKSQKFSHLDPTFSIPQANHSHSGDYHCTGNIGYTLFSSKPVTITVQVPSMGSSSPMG

T2: hFcgRIIaR (human, UniProt P12318 34-217)
T2 construct: extracellular domain; also called human FcγRIIa type R (R131)
T2 sequence (looked up): T1 sequence (looked up) with H134R

T3: hFcgRIIb (human, UniProt P31994 43-217)
T3 construct: extracellular domain; also called human FcγRIIb
T3 sequence (looked up): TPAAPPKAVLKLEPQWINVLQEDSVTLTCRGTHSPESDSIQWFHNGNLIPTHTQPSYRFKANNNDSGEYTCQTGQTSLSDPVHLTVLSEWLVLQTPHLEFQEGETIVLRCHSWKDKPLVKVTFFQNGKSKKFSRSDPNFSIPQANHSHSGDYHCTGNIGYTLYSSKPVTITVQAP

B1: A375-SCF041a/B167-Lamlib (antibody, human IgG1, lambda)
heavy: EVQLVESGGGLVKPGGSLRLSCAASGFTFSTFTMNWVRQAPGKGLEWVSSISSKSTYIEYADSFKVRFTISRDNAKNSLYLQMNSLRAEDTAVYYCARYGAKNFLNWVFDYWGQGTLVTVSSASTKGPSVFPLAPSSKSTSGGTAALGCLVKDYFPEPVTVSWNSGALTSGVHTFPAVLQSSGLYSLSSVVTVPSSSLGTQTYICNVNHKPSNTKVDKRVEPKSCDKTHTCPPCPAPELLNGPSVFLFPPKPKDTLMISRTPEVTCVVVDVSDEDPEVKFNWYVDGVEVHNAKTKPREEQYNSTYRVVSVLTVLHQDWLNGKEYKCKVSNKALPKPIEKTISKAKGQRREPQVYTLPPSREEMTKNQVSLTCLVKGFYPSDIAVEWESNGQPENNYKTTPPVLDSDGSFFLYSKLTVDKSRWQQGNVFSCSVMHEALHNHYTQKSLSLSP
light: QSALTQPPSASGSPGQTVTISCTGTRYDVGYYEYVSWYQQHPGKAPKLMIYETSKRLSGVPDRFSGSKSGNTASLTVSGLQAEDEADYYCSSYRYEHQVSFGGGTKLTVLGQPKAAPSVTLFPPSSEELQANKATLVCLISDFYPGAVTVAWKADSSPVKAGVETTTPSKQSNNKYAASSYLSLTPEQWKSHRSYSCQVTHEGSTVEKTVAPTECS
B2: A375-SCF056a/B167-Lamlib (antibody, human IgG1, lambda)
heavy: B1 heavy with Q316R, R348P
light: B1 light
notes: copies: 2 + 2
B3: A375-SCF041aPh/B167-Lamlib (antibody, human IgG1, lambda)
heavy: B1 heavy with L240W
light: B1 light
B4: A375-SCF056aPh/B167-Lamlib (antibody, human IgG1, lambda)
heavy: B1 heavy with L240W, Q316R, R348P
light: B1 light
notes: copies: 2 + 2
B5: A375-SCF043aPh/B167-Lamlib (antibody, human IgG1, lambda)
heavy: B1 heavy with L240W, D418K
light: B1 light
B6: A375-SCF059a/B167-Lamlib (antibody, human IgG1, lambda)
heavy: B1 heavy with Q316R, R348P, D418K
light: B1 light
notes: copies: 2 + 2
B7: A375-SCF042a/B167-Lamlib (antibody, human IgG1, lambda)
heavy: B1 heavy with R348P, D418K
light: B1 light
notes: copies: 2 + 2
B8: A375-SCF059aPh/B167-Lamlib (antibody, human IgG1, lambda)
heavy: B1 heavy with L240W, Q316R, R348P, D418K
light: B1 light
notes: copies: 2 + 2
B9: A375-SCF057a/B167-Lamlib (antibody, human IgG1, lambda)
heavy: B1 heavy with Q316R
light: B1 light
B10: A375-SCF057aPh/B167-Lamlib (antibody, human IgG1, lambda)
heavy: B1 heavy with L240W, Q316R
light: B1 light
B11: A375-SCF043a/B167-Lamlib (antibody, human IgG1, lambda)
heavy: B1 heavy with D418K
light: B1 light

target: T4, hFcgRIa (human, UniProt P12314 16-292); experiment: SPR 25C
T4 construct: extracellular domain; also called human FcγRIa; FcγRI
T4 sequence (P12314 16-292): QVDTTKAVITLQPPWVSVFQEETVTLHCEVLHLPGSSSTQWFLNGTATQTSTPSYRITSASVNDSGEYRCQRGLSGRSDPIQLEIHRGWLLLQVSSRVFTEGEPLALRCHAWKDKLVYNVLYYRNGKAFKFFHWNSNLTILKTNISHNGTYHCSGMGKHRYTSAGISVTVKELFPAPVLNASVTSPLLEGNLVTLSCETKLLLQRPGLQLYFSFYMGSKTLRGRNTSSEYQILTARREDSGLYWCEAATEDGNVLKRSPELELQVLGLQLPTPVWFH
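Throughout, for binding per 1RU of antibody: biacore SPR with antibody captured on an anti-human Fab lambda chip, human FcγR injected at 1000 nM (FcγRIa at 8 nM) in pH 7.4 phosphate buffer.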
Description: (§1) Biacore T200 (GE Healthcare) was used to evaluate the binding activity to the respective human Fcγ receptor (hereafter referred to as FcγR). Measurement was performed at 25° C. using 50 mM phosphate, 150 mM NaCl, 0.05 w/v %-P20, pH 7.4 as buffer. About 1000 RU of antibody was captured using a sensor chip immobilized with CaptureSelect™ Human Fab-lambda Kinetics Biotin Conjugate (Thermo Fisher Scientific) as a molecule for ligand capturing. Human FcγR was diluted to 8 nM for FcγRIa and 1000 nM for other FcγR in the measurement buffer, and it was interacted to the captured antibody. The binding activity of each antibody to FcγR was assessed by calculating the binding amount of FcγR (RU) per unit amount of antibody using Biacore T200 Evaluation Software 2.0.

Point of comparison: B11, “binding per 1RU of antibody” value 0.0429 RU. Against it:
- B1 — higher, 0.0446 RU
- B2 — lower, 0.0395 RU
- B3 — lower, 0.0013 RU
- B4 — lower, 0.0019 RU
- B5 — lower, 0.0011 RU
- B6 — lower, 0.038 RU
- B7 — lower, 0.0396 RU
- B8 — lower, 0.0089 RU
- B9 — lower, 0.0405 RU
- B10 — lower, 0.0021 RU

target: T1, hFcgRIIaH; experiment: SPR 25C
Description: as §1

Point of comparison: B5, “binding per 1RU of antibody” value 0.0349 RU. Against it:
- B1 — higher, 0.0571 RU
- B2 — higher, 0.0529 RU
- B3 — higher, 0.0371 RU
- B4 — lower, 0.0314 RU
- B6 — higher, 0.0502 RU
- B7 — higher, 0.0522 RU
- B8 — lower, 0.0332 RU
- B9 — higher, 0.0525 RU
- B10 — higher, 0.0365 RU
- B11 — higher, 0.0552 RU

target: T2, hFcgRIIaR; experiment: SPR 25C
Description: as §1

Point of comparison: B8, “binding per 1RU of antibody” value 0.0319 RU. Against it:
- B1 — higher, 0.0376 RU
- B2 — higher, 0.0331 RU
- B3 — higher, 0.0371 RU
- B4 — lower, 0.0299 RU
- B5 — higher, 0.0349 RU
- B6 — the same, 0.0319 RU
- B7 — higher, 0.0327 RU
- B9 — higher, 0.0367 RU
- B10 — higher, 0.0364 RU
- B11 — higher, 0.0361 RU

target: T3, hFcgRIIb; experiment: SPR 25C
Description: as §1

Point of comparison: B11, “binding per 1RU of antibody” value 0.0419 RU. Against it:
- B1 — higher, 0.0433 RU
- B2 — lower, 0.0399 RU
- B3 — lower, 0.035 RU
- B4 — lower, 0.0292 RU
- B5 — lower, 0.0339 RU
- B6 — lower, 0.0358 RU
- B7 — lower, 0.0393 RU
- B8 — lower, 0.0291 RU
- B9 — lower, 0.0412 RU
- B10 — lower, 0.0345 RU

target: T5, hFcgRIIIaF (human, UniProt P08637 17-208); experiment: SPR 25C
T5 construct: extracellular domain; also called human FcγRIIIa allotype F158
T5 sequence (P08637 17-208): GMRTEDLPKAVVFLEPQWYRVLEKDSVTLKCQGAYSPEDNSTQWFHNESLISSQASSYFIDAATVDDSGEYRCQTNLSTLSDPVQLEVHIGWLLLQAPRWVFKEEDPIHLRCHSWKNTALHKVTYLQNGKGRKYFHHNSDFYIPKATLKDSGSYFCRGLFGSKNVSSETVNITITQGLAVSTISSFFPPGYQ
Description: as §1

Point of comparison: B4, “binding per 1RU of antibody” value 0.001 RU. Against it:
- B1 — lower, 0.0009 RU
- B2 — higher, 0.0011 RU
- B3 — lower, 0.0007 RU
- B5 — lower, 0.0001 RU
- B6 — the same, 0.001 RU
- B7 — lower, 0.0003 RU
- B8 — lower, 0.0003 RU
- B9 — higher, 0.0013 RU
- B10 — lower, -0.0003 RU
- B11 — higher, 0.0011 RU

target: T6, hFcgRIIIaV (human, UniProt P08637 17-208); experiment: SPR 25C
T6 construct: extracellular domain; also called human FcγRIIIa allotype V158
T6 sequence (P08637 17-208 F176V): as the sequence (P08637 17-208) above, with F160V counted along it
Description: as §1

Point of comparison: B5, “binding per 1RU of antibody” value 0.0001 RU. Against it:
- B1 — higher, 0.0022 RU
- B2 — higher, 0.0023 RU
- B3 — higher, 0.0005 RU
- B4 — higher, 0.001 RU
- B6 — higher, 0.0021 RU
- B7 — higher, 0.0014 RU
- B8 — higher, 0.0028 RU
- B9 — higher, 0.0025 RU
- B10 — higher, 0.0005 RU
- B11 — higher, 0.0025 RU

target: human FcRn (human, UniProt P55899 24-290; P61769 21-119, limits assumed); experiment: SPR 25C pH 6.0, steady state;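 note: antibody captured on chip via anti-human Fab-lambda ligand, human FcRn injected as analyte in 50 mM phosphate buffer with 150 mM NaCl and P20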
Sequence (P55899 24-290 limits assumed, chain 1 of 2): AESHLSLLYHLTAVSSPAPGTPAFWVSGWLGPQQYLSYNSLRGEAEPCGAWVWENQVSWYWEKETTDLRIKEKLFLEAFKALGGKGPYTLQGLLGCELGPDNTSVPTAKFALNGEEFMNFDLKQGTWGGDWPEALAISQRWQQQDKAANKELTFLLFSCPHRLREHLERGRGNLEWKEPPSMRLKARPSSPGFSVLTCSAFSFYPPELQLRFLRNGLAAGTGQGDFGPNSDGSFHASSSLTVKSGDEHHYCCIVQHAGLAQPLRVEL
Sequence (P61769 21-119 limits assumed, chain 2 of 2): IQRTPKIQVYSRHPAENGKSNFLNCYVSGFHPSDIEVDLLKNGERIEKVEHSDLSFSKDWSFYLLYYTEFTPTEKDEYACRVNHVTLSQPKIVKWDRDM
Description: Biacore T200 (GE Healthcare) was used to assess the binding activity to human FcRn. Measurement was performed at 25° C. using 50 mM phosphate, 150 mM NaCl, 0.05 w/v %-P20, pH 6.0 as buffer. […] About 400 RU of antibody was captured using a sensor chip immobilized with CaptureSelect™ Human Fab-lambda Kinetics Biotin Conjugate (Thermo Fisher Scientific) as a molecule for ligand capturing, followed by the binding of human FcRn diluted in measuring buffer. The activity of the respective antibodies to bind FcRn was assessed by calculating KD (mol/L) by the steady-state model using Biacore T200 Evaluation Software 2.0.

Point of comparison: B10, Kd 0.909 µM. Against it:
- B1 — within 1.5-fold, 1.1 µM
- B2 — within 1.5-fold, 0.956 µM
- B3 — within 1.5-fold, 1.13 µM
- B4 — within 1.5-fold, 1 µM
- B5 — within 1.5-fold, 1.21 µM
- B6 — within 1.5-fold, 1.03 µM
- B7 — 1.6-fold higher, 1.49 µM
- B8 — within 1.5-fold, 1.05 µM
- B9 — within 1.5-fold, 0.928 µM
- B11 — within 1.5-fold, 1.18 µM

target: T4, hFcgRIa; experiment: SPR 25C; relative to A375-G1T3/B167-Lamlib;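 note: SPR with antibody captured on an anti-human Fab-lambda chip, human FcγR analyte at 8 nM for FcγRIa or 1000 nM for the others, pH 7.4, FcγR RU per captured antibody unit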
Description: as §1

Point of comparison: B4, relative binding amount 0.02. Against it:
- B1 — higher, 0.55
- B2 — higher, 0.49
- B3 — the same, 0.02
- B5 — lower, 0.01
- B6 — higher, 0.47
- B7 — higher, 0.49
- B8 — higher, 0.11
- B9 — higher, 0.5
- B10 — higher, 0.03
- B11 — higher, 0.53

target: T1, hFcgRIIaH; experiment: SPR 25C; relative to A375-G1T3/B167-Lamlib;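 note: SPR with antibody captured on an anti-human Fab-lambda chip, human FcγR analyte at 8 nM for FcγRIa or 1000 nM for the others, pH 7.4, FcγR RU per captured antibody unit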
Description: as §1

Point of comparison: B5, relative binding amount 0.62. Against it:
- B1 — higher, 1.01
- B2 — higher, 0.93
- B3 — higher, 0.65
- B4 — lower, 0.55
- B6 — higher, 0.88
- B7 — higher, 0.92
- B8 — lower, 0.59
- B9 — higher, 0.93
- B10 — higher, 0.64
- B11 — higher, 0.97

target: T2, hFcgRIIaR; experiment: SPR 25C; relative to A375-G1T3/B167-Lamlib;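 note: SPR with antibody captured on an anti-human Fab-lambda chip, human FcγR analyte at 8 nM for FcγRIa or 1000 nM for the others, pH 7.4, FcγR RU per captured antibody unit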
Description: as §1

Point of comparison: B2, relative binding amount 0.71. Against it:
- B1 — higher, 0.81
- B3 — higher, 0.8
- B4 — lower, 0.64
- B5 — higher, 0.75
- B6 — lower, 0.69
- B7 — the same, 0.71
- B8 — lower, 0.69
- B9 — higher, 0.79
- B10 — higher, 0.79
- B11 — higher, 0.78

target: T3, hFcgRIIb; experiment: SPR 25C; relative to A375-G1T3/B167-Lamlib;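 note: SPR with antibody captured on an anti-human Fab-lambda chip, human FcγR analyte at 8 nM for FcγRIa or 1000 nM for the others, pH 7.4, FcγR RU per captured antibody unit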
Description: as §1

Point of comparison: B7, relative binding amount 3.59. Against it:
- B1 — higher, 3.95
- B2 — higher, 3.64
- B3 — lower, 3.2
- B4 — lower, 2.67
- B5 — lower, 3.1
- B6 — lower, 3.27
- B8 — lower, 2.66
- B9 — higher, 3.76
- B10 — lower, 3.15
- B11 — higher, 3.82

target: T5, hFcgRIIIaF; experiment: SPR 25C; relative to A375-G1T3/B167-Lamlib
Description: as §1

Point of comparison: B7, relative binding amount 0.01. Against it:
- B1 — higher, 0.04
- B2 — higher, 0.05
- B3 — higher, 0.03
- B4 — higher, 0.05
- B5 — lower, 0
- B6 — higher, 0.05
- B8 — the same, 0.01
- B9 — higher, 0.06
- B10 — lower, -0.02
- B11 — higher, 0.05

target: T6, hFcgRIIIaV; experiment: SPR 25C; relative to A375-G1T3/B167-Lamlib
Description: as §1

Point of comparison: B10, relative binding amount 0.01. Against it:
- B1 — higher, 0.03
- B2 — higher, 0.03
- B3 — the same, 0.01
- B4 — the same, 0.01
- B5 — lower, 0
- B6 — higher, 0.03
- B7 — higher, 0.02
- B8 — higher, 0.04
- B9 — higher, 0.04
- B11 — higher, 0.04
